Residue numbers refer to the chain shown, from its start. Names and notes keep the numbering of the source.
System: engineered chimeric receptor SEQ ID NO: 33 and its mutants (human α7-nAChR ligand binding domain / human GlyRα1 ion pore domain) in Lenti-X 293T cells
Experiment: YFP fluorescence quenching anion reporter plate reader assay (percent quench, EC50)
Assay type: cell-based
Conditions: for YFP fluorescence quenching using CNL001 (percent quench): receptor named in row; for YFP fluorescence quenching using Facinicline, 30 nM fac: ligand Facinicline 30 nM; for YFP fluorescence quenching using Facinicline, 300 nM fac: ligand Facinicline 300 nM; for YFP fluorescence quenching using Facinicline, 30 uM fac: ligand Facinicline 30 uM; for YFP fluorescence quenching using TC-6987, 1 uM tc6987: ligand TC-6987 1 uM; for YFP fluorescence quenching using TC-6987, 10 uM tc6987: ligand TC-6987 10 uM; for YFP fluorescence quenching using TC-6987, 500 uM tc6987: ligand TC-6987 500 uM; for YFP fluorescence quenching using Varenicline, 3 nM var: ligand Varenicline 3 nM; for YFP fluorescence quenching using Varenicline, 30 nM var: ligand Varenicline 30 nM; for YFP fluorescence quenching using Varenicline, 300 nM var: ligand Varenicline 300 nM; for YFP fluorescence quenching using Varenicline, 500 nM var: ligand Varenicline 500 nM; for YFP fluorescence quenching using Varenicline, 1 uM var: ligand Varenicline 1 uM
Summary of the method: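 Percent quench compares mean YFP signal over the final 10 s with the 15 s baseline before ligand, added in iodide-containing extracellular solution (pH 7.2). Cells were LX293T carrying a YFP anion reporter, transiently transfected with the channel construct; plates were preincubated 30 min at 37 °C.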

[1] = 1 nM CNL001, first column so headed
[2] = 1 nM CNL001, second column so headed
[3] = 3 nM brd (TC-5619/Bradanicline)
[4] = 10 nM CNL001, first column so headed
[5] = 10 nM CNL001, second column so headed
[6] = 30 nM brd (TC-5619/Bradanicline)
[7] = 50 nM CNL001, first column so headed
[8] = 50 nM CNL001, second column so headed
[9] = 100 nM CNL001, first column so headed
[10] = 100 nM CNL001, second column so headed
[11] = 300 nM brd (TC-5619/Bradanicline)
[12] = 1 uM CNL001, first column so headed
[13] = 1 uM CNL001, second column so headed

B1: CODA945: engineered receptor: Q139E in SEQ ID NO: 33 (protein)
chain: MRCSPGGVWLALAASLLHVSLQGEFQRKLYKELVKNYNPLERPVANDSQPLTVYFSLSLLQIMDVDEKNQVLTTNIWLQMSWTDHYLQWNVSEYPGVKTVRFPDGQIWKPDILLYNSADERFDATFHTNVLVNSSGHCEYLPPGIFKSSCPMDLKNFPMDVQTCKLKFGSWSYGGWSLDLQMQEADISGYIPNGEWDLVGIPGKRSERFYECCKEPYPDVTFTVTMRRRMGYYLIQMYIPSLLIVILSWISFWINMDAAPARVGLGITTVLTMTTQSSGSRASLPKVSYVKAIDIWMAVCLLFVFSALLEYAAVNFVSRQHKELLRFRRKRRHHKSPMLNLFQEDEAGEGRFNFSAYGMGPACLQAKDGISVKGANNSNTTNPPPAPSKSPEEMRKLFIQRAKKIDKISRIGFPMAFLIFNMFYWIIYKIVRREDVHNQ
modifications: synthetic sequence of chimeric LGIC
- YFP fluorescence quenching using CNL001 (percent quench) [1]: 6.65%
- YFP fluorescence quenching using CNL001 (percent quench) [2]: 13.512%
- YFP fluorescence quenching using TC-5619/Bradanicline (percent quench) [3]: 14.15%
- YFP fluorescence quenching using CNL001 (percent quench) [4]: 78.678%
- YFP fluorescence quenching using CNL001 (percent quench) [5]: 82.723%
- YFP fluorescence quenching using TC-6683 (percent quench) (30 nM TC-6683): −26.47%
- YFP fluorescence quenching using TC-5619/Bradanicline (percent quench) [6]: 78.18%
- YFP fluorescence quenching using CNL001 (percent quench) [7]: 84.91%
- YFP fluorescence quenching using CNL001 (percent quench) [8]: 84.849%
- YFP fluorescence quenching using ABT-126 (percent quench) (50 nM abt (ABT-126)): −8.27%
- YFP fluorescence quenching using CNL001 (percent quench) [9]: 85.046%
- YFP fluorescence quenching using CNL001 (percent quench) [10]: 84.642%
- YFP fluorescence quenching (percent quench) (100 nM CNL002): 60.5%
- YFP fluorescence quenching using ABT-126 (percent quench) (100 nM abt (ABT-126)): 4.76%
- YFP fluorescence quenching using AZD-0328 (percent quench) (100 nM azd0328): −5.79%
- YFP fluorescence quenching using TC-6683 (percent quench) (300 nM TC-6683): −18.62%
- YFP fluorescence quenching using ABT-126 (percent quench) (300 nM abt (ABT-126)): 30.88%
- YFP fluorescence quenching using AZD-0328 (percent quench) (300 nM azd0328): 58.47%
- YFP fluorescence quenching using TC-5619/Bradanicline (percent quench) [11]: 76.8%
- YFP fluorescence quenching using CNL001 (percent quench) [12]: 85.493%
- YFP fluorescence quenching using CNL001 (percent quench) [13]: 86.071%
- YFP fluorescence quenching (percent quench) (1 uM CNL002): 75.41%
- YFP fluorescence quenching using ABT-126 (percent quench) (1 uM abt (ABT-126)): 60.66%
- YFP fluorescence quenching using TC-6683 (percent quench) (3 uM TC-6683): −13.39%
- YFP fluorescence quenching (percent quench) (10 uM ach (acetylcholine)): −1.25%
- YFP fluorescence quenching (percent quench) (30 uM CNL002): 77.46%
- YFP fluorescence quenching using TC-6683 (percent quench) (30 uM TC-6683): −16.6%
- YFP fluorescence quenching using AZD-0328 (percent quench) (30 uM azd0328): 66.57%
- YFP fluorescence quenching using TC-6683 (percent quench) (100 uM TC-6683): −12.89%
- YFP fluorescence quenching (percent quench) (100 uM ach (acetylcholine)): 71.21%
- YFP fluorescence quenching (percent quench) (1 mM ach (acetylcholine)): 71.79%
- YFP fluorescence quenching (percent quench) (3 mM ach (acetylcholine)): 76.04%
- YFP fluorescence quenching using Facinicline, 30 nM fac: −7.16
- YFP fluorescence quenching using Facinicline, 300 nM fac: 71.17
- YFP fluorescence quenching using Facinicline, 30 uM fac: 72.14
- YFP fluorescence quenching using TC-6987, 1 uM tc6987: −0.97
- YFP fluorescence quenching using TC-6987, 10 uM tc6987: 21.53
- YFP fluorescence quenching using TC-6987, 500 uM tc6987: 7.39
- YFP fluorescence quenching using Varenicline, 3 nM var (first column): 8.207
- YFP fluorescence quenching using Varenicline, 3 nM var (second column): 7.835
- YFP fluorescence quenching using Varenicline, 30 nM var (first column): 9.509
- YFP fluorescence quenching using Varenicline, 30 nM var (second column): 10.204
- YFP fluorescence quenching using Varenicline, 300 nM var (first column): 9.818
- YFP fluorescence quenching using Varenicline, 300 nM var (second column): 12.539
- YFP fluorescence quenching using Varenicline, 500 nM var (first column): 16.762
- YFP fluorescence quenching using Varenicline, 500 nM var (second column): 15.21
- YFP fluorescence quenching using Varenicline, 1 uM var (first column): 48.292
- YFP fluorescence quenching using Varenicline, 1 uM var (second column): 54.096

B2: CODA377: engineered receptor: S172D in SEQ ID NO: 33 (protein)
chain: B1 chain with E139Q, S172D
modifications: synthetic sequence of chimeric LGIC
- YFP fluorescence quenching using CNL001 (percent quench) [1]: 67.544%
- YFP fluorescence quenching using CNL001 (percent quench) [2]: 74.209%
- YFP fluorescence quenching using TC-5619/Bradanicline (percent quench) (1 nM brd (TC-5619/Bradanicline)): 0.77%
- YFP fluorescence quenching using TC-5619/Bradanicline (percent quench) [3]: −4.59%
- YFP fluorescence quenching using CNL001 (percent quench) [4]: 74.346%
- YFP fluorescence quenching using CNL001 (percent quench) [5]: 75.816%
- YFP fluorescence quenching using TC-5619/Bradanicline (percent quench) (10 nM brd (TC-5619/Bradanicline)): 0.06%
- YFP fluorescence quenching using TC-6683 (percent quench) (30 nM TC-6683): −20.23%
- YFP fluorescence quenching using TC-5619/Bradanicline (percent quench) [6]: −10.48%
- YFP fluorescence quenching using CNL001 (percent quench) [7]: 77.068%
- YFP fluorescence quenching using CNL001 (percent quench) [8]: 76.99%
- YFP fluorescence quenching using ABT-126 (percent quench) (50 nM abt (ABT-126)): −1.53%
- YFP fluorescence quenching using CNL001 (percent quench) [9]: 79.352%
- YFP fluorescence quenching using CNL001 (percent quench) [10]: 77.865%
- YFP fluorescence quenching (percent quench) (100 nM CNL002): 59.35%
- YFP fluorescence quenching using ABT-126 (percent quench) (100 nM abt (ABT-126)): 18.18%
- YFP fluorescence quenching using AZD-0328 (percent quench) (100 nM azd0328): 65.04%
- YFP fluorescence quenching using TC-5619/Bradanicline (percent quench) (100 nM brd (TC-5619/Bradanicline)): 0.25%
- YFP fluorescence quenching using TC-6683 (percent quench) (300 nM TC-6683): −13.94%
- YFP fluorescence quenching using ABT-126 (percent quench) (300 nM abt (ABT-126)): 59.15%
- YFP fluorescence quenching using AZD-0328 (percent quench) (300 nM azd0328): 81.73%
- YFP fluorescence quenching using TC-5619/Bradanicline (percent quench) [11]: −10.61%
- YFP fluorescence quenching using CNL001 (percent quench) [12]: 80.272%
- YFP fluorescence quenching using CNL001 (percent quench) [13]: 79.432%
- YFP fluorescence quenching (percent quench) (1 uM CNL002): 79.26%
- YFP fluorescence quenching using ABT-126 (percent quench) (1 uM abt (ABT-126)): 72.28%
- YFP fluorescence quenching using TC-5619/Bradanicline (percent quench) (1 uM brd (TC-5619/Bradanicline)): 3.82%
- YFP fluorescence quenching using TC-6683 (percent quench) (3 uM TC-6683): −14.17%
- YFP fluorescence quenching (percent quench) (10 uM ach (acetylcholine)): −3.19%
- YFP fluorescence quenching (percent quench) (30 uM CNL002): 79.96%
- YFP fluorescence quenching using TC-6683 (percent quench) (30 uM TC-6683): 1.86%
- YFP fluorescence quenching using AZD-0328 (percent quench) (30 uM azd0328): 82.3%
- YFP fluorescence quenching using TC-6683 (percent quench) (100 uM TC-6683): 43.61%
- YFP fluorescence quenching (percent quench) (100 uM ach (acetylcholine)): 0.07%
- YFP fluorescence quenching (percent quench) (1 mM ach (acetylcholine)): 71.7%
- YFP fluorescence quenching (percent quench) (3 mM ach (acetylcholine)): 76.95%
- YFP fluorescence quenching using Facinicline, 30 nM fac: 4.93
- YFP fluorescence quenching using Facinicline, 300 nM fac: 84.13
- YFP fluorescence quenching using Facinicline, 10 uM fac (ligand Facinicline 10 uM): 66.96
- YFP fluorescence quenching using Facinicline, 30 uM fac: 85.29
- YFP fluorescence quenching using TC-6987, 1 uM tc6987: −9.74
- YFP fluorescence quenching using TC-6987, 3 uM tc6987 (ligand TC-6987 3 uM): −14.04
- YFP fluorescence quenching using TC-6987, 5 uM tc6987 (ligand TC-6987 5 uM): −0.95
- YFP fluorescence quenching using TC-6987, 10 uM tc6987: −7.41
- YFP fluorescence quenching using TC-6987, 30 uM tc6987 (ligand TC-6987 30 uM): −16.12
- YFP fluorescence quenching using TC-6987, 50 uM tc6987 (ligand TC-6987 50 uM): −12.79
- YFP fluorescence quenching using TC-6987, 100 uM tc6987 (ligand TC-6987 100 uM): −11.77
- YFP fluorescence quenching using TC-6987, 300 uM tc6987 (ligand TC-6987 300 uM): −19.68
- YFP fluorescence quenching using TC-6987, 500 uM tc6987: −17.02
- YFP fluorescence quenching using Varenicline, 3 nM var (first column): −3.433
- YFP fluorescence quenching using Varenicline, 3 nM var (second column): −5.737
- YFP fluorescence quenching using Varenicline, 30 nM var (first column): −5.319
- YFP fluorescence quenching using Varenicline, 30 nM var (second column): −6.175
- YFP fluorescence quenching using Varenicline, 300 nM var (first column): −4.135
- YFP fluorescence quenching using Varenicline, 300 nM var (second column): −8.614
- YFP fluorescence quenching using Varenicline, 500 nM var (first column): −6.062
- YFP fluorescence quenching using Varenicline, 500 nM var (second column): −6.125
- YFP fluorescence quenching using Varenicline, 1 uM var (first column): −14.134
- YFP fluorescence quenching using Varenicline, 1 uM var (second column): −15.373

From patent US20250152742A1, “COMPOSITIONS AND METHODS FOR NEUROLOGICAL DISEASES” (Trames Bio, Inc., priority 2022, published 2025)
